Measured values as given in the Immune Epitope Database (IEDB).
pIC50, pKd: −log10 of the molar value.

How the values were obtained:
HLA-B*18:01 = experiment: IEDB peptide-MHC binding, purified MHC/competitive/radioactivity; filed as Kd, often an IC50 or EC50 that approximates it; ≥ and ≤ were set here for values at or beyond the usual limits of such assays
HLA-B*40:01 = experiment: as above
HLA-B*40:02 = experiment: as above
HLA-B*44:02 = experiment: as above
HLA-B*44:03 = experiment: as above
HLA-B*45:01 = experiment: as above
HLA-A*11:01 [1] = experiment: IEDB peptide-MHC binding, purified MHC/competitive/fluorescence; ≥ and ≤ were set here for values at or beyond the usual limits of such assays
HLA-A*02:01 = experiment: IEDB peptide-MHC binding, purified MHC/competitive/radioactivity; filed as Kd, often an IC50 or EC50 that approximates it; ≥ and ≤ were set here for values at or beyond the usual limits of such assays; settings: source organism: Vaccinia virus WR
HLA-A*02:02 = experiment: as above; settings: source organism: Vaccinia virus WR
HLA-A*02:03 = experiment: as above; settings: source organism: Vaccinia virus WR
HLA-A*02:06 = experiment: as above; settings: source organism: Vaccinia virus WR
HLA-A*03:01 = experiment: as above; settings: source organism: Vaccinia virus WR
HLA-A*11:01 [2] = experiment: as above; settings: source organism: Vaccinia virus WR
HLA-A*31:01 = experiment: as above; settings: source organism: Vaccinia virus WR
HLA-A*33:01 = experiment: as above; settings: source organism: Vaccinia virus WR
HLA-A*68:01 = experiment: as above; settings: source organism: Vaccinia virus WR
HLA-A*68:02 = experiment: as above; settings: source organism: Vaccinia virus WR
HLA-B*07:02 = experiment: as above
HLA-B*35:01 = experiment: as above
HLA-B*51:01 [3] = experiment: as above
HLA-B*53:01 = experiment: as above
HLA-B*54:01 = experiment: as above
HLA-B*51:01 [4] = experiment: IEDB peptide-MHC binding, purified MHC/competitive/fluorescence; filed as Kd, often an IC50 or EC50 that approximates it; ≥ and ≤ were set here for values at or beyond the usual limits of such assays; settings: source organism: Mycobacterium tuberculosis CDC1551
[5] = source organism: SARS coronavirus Tor2
[6] = source organism: Vaccinia virus WR
[7] = source organism: Lymphocytic choriomeningitis virus (strain Armstrong)
[8] = source organism: Mammarenavirus juninense

## KELSPRWYF
HLA-B*18:01; [5]
  pKd: 5.73
HLA-B*40:01; [5]
  pKd: 6.05
HLA-B*40:02; [5]
  pKd: 8.14
HLA-B*44:02; [5]
  pKd: 7.20
HLA-B*44:03; [5]
  pKd: 7.28
HLA-B*45:01; [5]
  pKd: 5.22

## SQNSTEGRR
HLA-A*11:01 [1]; source organism: Sudan ebolavirus
  pIC50: 4.65

## HEDLMAAYV
HLA-B*18:01; [5]
  pKd: 5.41
HLA-B*40:01; [5]
  pKd: 5.92
HLA-B*40:02; [5]
  pKd: 5.88
HLA-B*44:02; [5]
  pKd: 5.15
HLA-B*44:03; [5]
  pKd: 5.30
HLA-B*45:01; [5]
  pKd: 5.77

## IPFIAYFVLM
HLA-A*02:01
  pKd: 5.88
HLA-A*02:02
  pKd: 5.50
HLA-A*02:03
  pKd: 5.69
HLA-A*02:06
  pKd: 5.10
HLA-A*03:01
  pKd: 6.18
HLA-A*11:01 [2]
  pKd: 5.34
HLA-A*31:01
  pKd: 6.19
HLA-A*33:01
  pKd: 5.83
HLA-A*68:01
  pKd: 5.83
HLA-A*68:02
  pKd: 5.03
HLA-B*07:02; [6]
  pKd: ≤ 4.40
HLA-B*35:01; [6]
  pKd: 5.92
HLA-B*51:01 [3]; [6]
  pKd: 5.65
HLA-B*53:01; [6]
  pKd: 5.89
HLA-B*54:01; [6]
  pKd: 5.70

## NDLQFGFGW
HLA-B*18:01; [7]
  pKd: 5.74
HLA-B*40:01; [7]
  pKd: ≤ 4.42
HLA-B*40:02; [7]
  pKd: 4.99
HLA-B*44:02; [7]
  pKd: 6.53
HLA-B*44:03; [7]
  pKd: 7.42
HLA-B*45:01; [7]
  pKd: ≤ 4.11

## LPPGSDEHI
HLA-B*51:01 [4]
  pKd: ≤ 4.70

## HPDMDSMMI
HLA-B*07:02; [8]
  pKd: 6.09
HLA-B*35:01; [8]
  pKd: 5.83
HLA-B*51:01 [3]; [8]
  pKd: 5.48
HLA-B*53:01; [8]
  pKd: 6.78
HLA-B*54:01; [8]
  pKd: ≤ 4.16

## EEAIRHVRAW
HLA-B*18:01; [5]
  pKd: ≤ 4.37
HLA-B*40:01; [5]
  pKd: ≤ 4.16
HLA-B*40:02; [5]
  pKd: ≤ 4.15
HLA-B*44:02; [5]
  pKd: 8.14
HLA-B*44:03; [5]
  pKd: 7.85
HLA-B*45:01; [5]
  pKd: 5.32

## IDYVPLKSAT
HLA-B*18:01; [5]
  pKd: ≤ 4.15
HLA-B*40:01; [5]
  pKd: ≤ 4.16
HLA-B*40:02; [5]
  pKd: ≤ 4.30
HLA-B*44:02; [5]
  pKd: ≤ 4.40
HLA-B*44:03; [5]
  pKd: ≤ 4.15
HLA-B*45:01; [5]
  pKd: 5.69

## TFSILNRKA
HLA-A*11:01 [1]; source organism: Zaire ebolavirus
  pIC50: 4.18
